Results: patent publication US20090074766A1, “Methods of inhibiting HIV-2 infection” (priority 2007, published 2009)
“And” between values parts separate entries of the source, which are not always exact repeats. Equal entries are not always repeated. Where two headings read alike, the source gives them in different places.

Tests used:
R5X4 HIV-2 310342 = experiment: Inhibition of replication in PBMC cultures, RT activity readout: HIV-2 310342; type: cell-based
Procedure: (§1) Viruses: All virus isolates were grown and titered exclusively in stimulated PBMC as described previously. […] The HIV-2 isolates used in this study have been previously described (Owen, S. M., Ellenberger, D., Rayfield, M., Wiktor, S., Michel, P., Grieco, M. H., Gao, F., Hahn, B. H., and Lai, R. B. 1998. Genetically Divergent Strains of Human Immunodeficiency Virus Type 2 Use Multiple Coreceptors for Entry. J Virol 72:5425-5432) and were obtained from the NIH AIDS Research and Reference Reagent Program.
(§2) PA14 (Lot # DF-021204) was produced for reagent use in the Research & Development laboratories of Progenics Pharmaceuticals Inc.
Inhibition of HIV-1 and HIV-2 replication in PBMC cultures: PBMC were isolated from 34 healthy blood donors with Ficoll-Hypaque (all media from Cellgro, Herndon, Va.) and depleted of CD8+ cells using RosetteSep CD8 depletion cocktail (StemCell Technologies) according to the manufacturer's instructions. […] Reverse Transcriptase (RT) activity was measured on Day 7 post infection (pi) for HIV-1 and Day 10 pi for HIV-2 by the Reverse Transcriptase Assay, Colorimetric kit, #11 468 120 910, Roche (Switzerland) according to the manufacturer's instructions with the following exception: neither ultracentrifugation nor PEG precipitation of the culture supernatants was performed before viral lysis. […]

CCR5 lymphocytes = type: in vivo, human
Procedure: Whole blood specimens were combined separately with the indicated phycoerythrin-labeled anti-CCR5 antibodies or with appropriate isotype-control antibodies. Erythocytes were lysed and leukocytes were stabilized using the ImmunoPrep Reagent System (Beckman Coulter), and the cells were analyzed on a TQ Prep™ flow cytometry workstation (Beckman Coulter). Data were expressed as the percent of CCR5 cells relative to all cells gated in the analysis.
For up to 60 days post-treatment, at the times indicated in FIG. 6, blood was collected and analyzed for CCR5 lymphocyte levels.
Background binding of isotype control antibodies was unchanged.

R5 HIV-2 310072 = experiment: Inhibition of replication in PBMC cultures, RT activity readout: HIV-2 310072; type: cell-based
Procedure: as §1, §2
(§3) Inhibition of HIV-1 and HIV-2 replication in PBMC cultures: PBMC were isolated from 34 healthy blood donors with Ficoll-Hypaque (all media from Cellgro, Herndon, Va.) and depleted of CD8+ cells using RosetteSep CD8 depletion cocktail (StemCell Technologies) according to the manufacturer's instructions. Equal numbers of cells from each donor were then separately stimulated with 5 ug phytohemagglutinin/ml (Sigma, St. Louis, Mo.) or with surface-immobilized anti-CD3 antibody OKT3 in RPMI 1640 medium containing 10% fetal calf serum, 100 Units of interleukin-2/ml (NIH AIDS Research and Reference Reagent Program), glutamine, and antibiotics (PBMC culture medium) as previously described. After 72 hours, equal numbers of PBMC stimulated by one of these two methods from each donor were combined for use in infection assays as follows. […] The virus inoculum was adjusted to 400 to 2,000 times the TCID50 per ml in PBMC culture medium, and a 50-ul aliquot was added to each culture. The inhibitory doses refer to the concentrations of the agents present at this point in the culture, when virus, cells, and inhibitors were all present at their final concentrations. Reverse Transcriptase (RT) activity was measured on Day 7 post infection (pi) for HIV-1 and Day 10 pi for HIV-2 by the Reverse Transcriptase Assay, Colorimetric kit, #11 468 120 910, Roche (Switzerland) according to the manufacturer's instructions with the following exception: neither ultracentrifugation nor PEG precipitation of the culture supernatants was performed before viral lysis.
(§4) The inhibition data were analyzed using GraphPad Prism software (GraphPad Software, San Diego, Calif.). A 4-parameter logistic fit was used calculate the concentration of inhibitor that afforded a 50% and a 90% reduction in RT activity. […] The % inhibitions where best-fit curve reached a top plateau, also as calculated by GraphPad Prism software, are reported as well as maximum percent inhibition (MPI). […] Inhibition curves with a poor sigmoid fit (R^2<0.7) were excluded from data analysis.

[1] = human, in vivo
Procedure: Individuals were treated in sequential, dose-rising cohorts of 5 subjects (4 active and 1 placebo) each and evaluated for up to 120 days post-treatment. […] Safety assessments consisted of monitoring the following: vital signs (blood pressure, pulse, temperature, etc; hematology (hemoglobin, hematocrit, leukocytes, platelets, etc.); serum chemistries (AST/ALT, alkaline phosphatase, BUN, creatinine, etc.); urinalysis (pH, specific gravity, protein, glucose, leukocytes, etc.); and ECGs (12-lead).

R5 HIV-1 JR-FL = experiment: Inhibition of replication in PBMC cultures, RT activity readout: HIV-1 JR-FL; type: cell-based
Procedure: as §1, §2, §3, §4

R5 HIV-2 isolates = experiment: Inhibition of replication in PBMC cultures, RT activity readout: panel of five R5 HIV-2 isolates; type: cell-based
Procedure: Two well-characterized R5 HIV-1 isolates were included for comparative purposes.
Viruses: All virus isolates were grown and titered exclusively in stimulated PBMC as described previously.
Equal numbers of cells from each donor were then separately stimulated with 5 ug phytohemagglutinin/ml (Sigma, St. Louis, Mo.) or with surface-immobilized anti-CD3 antibody OKT3 in RPMI 1640 medium containing 10% fetal calf serum, 100 Units of interleukin-2/ml (NIH AIDS Research and Reference Reagent Program), glutamine, and antibiotics (PBMC culture medium) as previously described. After 72 hours, equal numbers of PBMC stimulated by one of these two methods from each donor were combined for use in infection assays as follows. […] The virus inoculum was adjusted to 400 to 2,000 times the TCID50 per ml in PBMC culture medium, and a 50-ul aliquot was added to each culture. The inhibitory doses refer to the concentrations of the agents present at this point in the culture, when virus, cells, and inhibitors were all present at their final concentrations.
as §4
The panel was tested five times on a different PBMC donor pool each time, using the RT ELISA as a readout.

HIV-1 CC 1/85 = experiment: Previous studies (300-TD-028): HIV-1 replication in PBMC quantitated by p24 ELISA, CC 1/85; type: cell-based
Procedure: The EC values were measured by p24 ELISA in previous studies, according to published methods. Because the p24 ELISA cannot efficiently quantitate p24 from the HIV-2 isolates used in this study, a commercial ELISA that measures reverse transcriptase was chosen as a readout for both the HIV-2 and HIV-1 infection assays in the present study.

[2] = HIV-1 JR-FL, R5, median, current study n = 5
[3] = JR-FL, current study n = 5, mean
[4] = Median line of the five R5 HIV-2 isolates
[5] = individual assays (Source), previous study, p24 ELISA
[6] = previous studies n = 24, median

B1: PRO 140: humanized IgG4,κ anti-CCR5 monoclonal antibody, humanized version of murine mAb PA14 (antibody, chains of the INN, looked up, V domains shown)
VH: EVQLVESGGGLVKPGGSLRLSCAASGYTFSNYWIGWVRQAPGKGLEWIGDIYPGGNYIRNNEKFKDKTTLSADTSKNTAYLQMNSLKTEDTAVYYCGSSFGSNYVFAWFTYWGQGTLVTVSS
VL: DIVMTQSPLSLPVTPGEPASISCRSSQRLLSSYGHTYLHWYLQKPGQSPQLLIYEVSNRFSGVPDRFSGSGSGTDFTLKISRVEAEDVGVYYCSQSTHVPLTFGQGTKVEIK
- EC50 (median) (R5X4 HIV-2 310342): >100 µg/mL
- EC90 (median) (R5X4 HIV-2 310342): >100 µg/mL
- time cells remain partially coated (CCR5 lymphocytes; single 2 mg/kg dose): > 4 weeks
- time cells remain partially coated (CCR5 lymphocytes; single 5 mg/kg dose): > 60 days
- EC50 (median) (R5 HIV-2 310072; HIV-2 310072, R5): 0.08 µg/mL
- EC90 (median) (R5 HIV-2 310072; HIV-2 310072, R5): 1.4 µg/mL
- MPI (maximum percent inhibition) (R5 HIV-2 310072; R5 HIV-2 310072, individual assays (Source)): 92% and 96% and 97%
- MPI, Median (R5 HIV-2 310072; R5 HIV-2 310072, median of assays with R^2 >= 0.7): 96%
- dose-limiting toxicity [1]: no dose-limiting toxicity
- EC50 (median) (R5 HIV-1 JR-FL; [2]): 0.09 µg/mL
- EC90 (median) (R5 HIV-1 JR-FL; [2]): 7.0 µg/mL
- EC50 (mean) (R5 HIV-1 JR-FL; [3]): <0.97 µg/mL
- EC90 (mean) (R5 HIV-1 JR-FL; [3]): 22 µg/mL
- MPI (maximum percent inhibition) (R5 HIV-1 JR-FL; R5 HIV-1 JR-FL, individual assays (Source)): 100% and 103% and 101% and 110%
- MPI, Median (R5 HIV-1 JR-FL; R5 HIV-1 JR-FL, median of assays with R^2 >= 0.7): 102%
- EC50, median over the R5 HIV-2 isolates (R5 HIV-2 isolates; [4]): 0.12 µg/mL
- EC90, median over the R5 HIV-2 isolates (R5 HIV-2 isolates; [4]): 21 µg/mL
- median MPI against the R5 HIV-2 isolates (R5 HIV-2 isolates; maximum percent inhibition): 96%
- MPI, Median Values, all R5 HIV-2 Viruses (R5 HIV-2 isolates; median, all R5 HIV-2 viruses): 96%
- EC50 (HIV-1 CC 1/85; [5]): 1.1 µg/mL and 0.004 µg/mL and 1.4 µg/mL and 0.16 µg/mL and 2.1 µg/mL and 0.006 µg/mL and <0.001 µg/mL and 0.001 µg/mL and 0.01 µg/mL and 4.5 µg/mL and 0.7 µg/mL and 0.96 µg/mL and 0.67 µg/mL and 0.58 µg/mL and 5.4 µg/mL and 4.6 µg/mL and 0.04 µg/mL and 0.85 µg/mL and 7.8 µg/mL and 5.1 µg/mL and 2.7 µg/mL and 0.08 µg/mL and 0.1 µg/mL
- EC90 (HIV-1 CC 1/85; [5]): 13 µg/mL and 0.34 µg/mL and 4.2 µg/mL and 3.6 µg/mL and 9.6 µg/mL and 0.22 µg/mL and <0.001 µg/mL and 0.01 µg/mL and 0.03 µg/mL and 1.1 µg/mL and >50 µg/mL and 4.9 µg/mL and 8.1 µg/mL and 24 µg/mL and 33 µg/mL and 7.3 µg/mL and 8.2 µg/mL and 0.88 µg/mL and 3.4 µg/mL
- EC50 (mean) (HIV-1 CC 1/85; previous studies n = 24, mean): <1.6 µg/mL
- EC90 (mean) (HIV-1 CC 1/85; previous studies n = 24, mean): >12 µg/mL
- EC50 (median) (HIV-1 CC 1/85; [6]): 0.69 µg/mL
- EC90 (median) (HIV-1 CC 1/85; [6]): 4.9 µg/mL
